Measurements from PMC5441900.

What was measured:
[1] = target: CWI (cell wall invertase) extracted from mature soybean leaves (Glycine max (endogenous in mature leaves))
[2] = target: VI (vacuolar invertase) extracted from mature soybean leaves (Glycine max (endogenous in mature leaves))

## recombinant GmC/VIF2 (natural protein)
[1]
  inhibition of CWI activity (glucose released from sucrose) of a leaf cell-wall preparation after 30 min at 37 °C with recombinant GmC/VIF2; maximum at about 100 ng: 80%
[2]
  inhibition of VI activity (glucose released from sucrose) of a leaf soluble fraction after 30 min at 37 °C with recombinant GmC/VIF2; maximum at about 100 ng: 75%

## recombinant GmCIF1 (natural protein)
[2]
  inhibition of VI activity (glucose released from sucrose) of a leaf soluble fraction after 30 min at 37 °C with recombinant GmCIF1; maximum at about 50 ng, no further effect at 100 ng and 1000 ng: 70%
